Like-named read-outs stand apart in the source and are kept apart here. *1 amine or outer side, *2 acyl side, *3 side chain or, on linkers, in order; H or OH if unused. Where a SMILES comes first, the peptide text is derived from it. Bridges are numbered along the chain shown (N, C = ends). [ ]: non-standard residue; d: D form. The star is where a group is joined. TATA = O=C(CC[*:1])N1CN(C(=O)CC[*:2])CN(C(=O)CC[*:3])C1; NOTA = O=C(O)CN1CCN(CC(=O)O)CCN(CC(=O)*)CC1; Hyp = O=C(O)[C@@H]1C[C@@H](O)CN1; hArg = N=C(N)NCCCC[C@H](N)C(=O)O; Pen = CC(C)(S)[C@H](N)C(=O)O; βAla = NCCC(=O)O; Sar = CNCC(=O)O
Experiments:
PC-3 tumor-bearing mice = details: 4 h, dissected tissue uptake ratio
Procedure: In vivo radiobiological distribution assay: mice in the PET/CT imaging group were sacrificed immediately after the end of 4 h imaging, and mice in the inhibition group were sacrificed after 1 h imaging. Tissue samples of tumor, blood, heart, lung, liver, spleen, kidney, stomach, intestine, bone, muscle, and brain were collected by dissection, weighed and their radioactive counts were recorded. The probe uptake value in each tissue and organ of each experimental animal is expressed as radioactivity per gram of tissue as a percentage of the dose administered (% ID/g).

in vivo = details: nude, mouse, iv, 11.1 MBq, total radioactivity
Procedure: The tissue distribution characteristics of the compounds in PC-3 tumor-bearing mice were studied by using the PC-3 tumor-bearing mice model, small animal PET/CT scans were performed at different time points after a single intravenous administration of the compounds, tumors and other regions of interest were delineated to obtain radioactive uptake values.
Tumor cells in the logarithmic growth phase were used for in vivo tumor inoculation. PC-3 cells were suspended in saline at a density of 5×10^6/mL, and a total of 15 nude mice were inoculated under the right flank at 0.1 mL per inoculation point. Imaging and biodistribution experiments were performed when tumors grew to 300-600 mm^3 (tumor volume measurement method: the long diameter and short diameter of the tumor were measured, and its volume calculation formula was: volume=0.5× major diameter× minor diameter^2). The drug was distributed according to the animal dose on the drug distribution table, and a certain volume of compound diluent was absorbed by a 1 mL insulin syringe, and the initial radioactive dose and initial dosimetry time were recorded. The injection time, residual radioactivity dose, and residual dose determination time were recorded after tail vein injection in tumor-bearing mice. […] PET/CT scans of animals were performed at different time points after administration. During the scanning process, the animals continued to inhale 1-2% isoflurane to maintain the anesthetic effect, and the scanning time was recorded. […] After the completion of PET/CT scanning, the images were reconstructed and the images and data were processed with the software of the device. The tumor, heart (including contents), kidney, intestine, and muscle were delineated as regions of interest. The percentage injection dose rate per gram of tissue in the area of interest (% ID/g) was obtained. The data of biological distribution was expressed as the percentage of radioactive count per gram of tissue or organ to the total dose (radioactive count) (% ID/g).
Data for each sampling point were expressed as the mean standard deviation (mean SD) of 3 tumor-bearing mice.
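Throughout, for Tumor/blood: dissected tissues were weighed and their radioactivity counted, uptake given as percent of administered dose per gram, tissue ratios derived from these values.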
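Throughout, for Tumor/bone: dissected tissues were weighed and their radioactivity counted, uptake given as percent of administered dose per gram, tissue ratios derived from these values.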
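Throughout, for Tumor/brain: dissected tissues were weighed and their radioactivity counted, uptake given as percent of administered dose per gram, tissue ratios derived from these values.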
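Throughout, for Tumor/heart: dissected tissues were weighed and their radioactivity counted, uptake given as percent of administered dose per gram, tissue ratios derived from these values.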

## CC(C)C[C@@H]1NC(=O)[C@@H]2CSCCC(=O)N3CN(CN(C3)C(=O)CCSC(C)(C)[C@@H](C(N)=O)NC(=O)[C@H](CCCCNC(=N)N)NC(=O)[C@H](Cc3c[nH]c4ccccc34)NC(=O)[C@@H](CC(=O)O)NC(=O)[C@@H]3CCCN3C(=O)[C@H](Cc3c[nH]cn3)NC1=O)C(=O)CCSC[C@H](NC(=O)[C@@H]1CC(=O)NCCCC[C@H](NC(=O)CN(C)C(=O)CN(C)C(=O)CN(C)C(=O)CN(C)C(=O)CN(C)C(=O)CN(C)C(=O)CN(C)C(=O)CN(C)C(=O)CN(C)C(=O)CN(C)C(=O)CCNC(=O)CN3CCN(CC(=O)O)CCN(CC(=O)O)CC3)C(=O)N[C@@H](CCCCNC(=N)N)C(=O)N1)C(=O)N1C[C@H](O)C[C@H]1C(=O)N[C@@H](CC(C)C)C(=O)N[C@@H](C(C)C)C(=O)N[C@@H](CC(N)=O)C(=O)N1CCC[C@H]1C(=O)N[C@@H](CC(C)C)C(=O)N2 [Example 3] ({NOTA-βAla}-[Sar][Sar][Sar][Sar][Sar][Sar][Sar][Sar][Sar][Sar]K[hArg]DC[Hyp]LVNPLCLHP[dD]W[hArg][Pen]-NH2; lactam 11-13; linker 14-21-28 via TATA)
PC-3 tumor-bearing mice; mouse S1
  Tumor/blood: 24.89
  Tumor/bone: 4.39
  Tumor/brain: 44.40
  Tumor/heart: 16.45
  Tumor/intestine: 12.02
  Tumor/kidney: 0.08
  Tumor/liver: 7.63
  Tumor/lung: 10.25
  Tumor/muscle: 11.01
  Tumor/spleen: 7.58
  Tumor/stomach: 22.84
PC-3 tumor-bearing mice; mouse S2
  Tumor/blood: 3.88
  Tumor/bone: 1.30
  Tumor/brain: 40.18
  Tumor/heart: 7.47
  Tumor/intestine: 7.64
  Tumor/kidney: 0.04
  Tumor/liver: 4.34
  Tumor/lung: 4.78
  Tumor/muscle: 2.89
  Tumor/spleen: 4.03
  Tumor/stomach: 14.71
PC-3 tumor-bearing mice; mouse S3
  Tumor/blood: 36.90
  Tumor/bone: 7.02
  Tumor/brain: 91.90
  Tumor/heart: 30.12
  Tumor/intestine: 27.31
  Tumor/kidney: 0.10
  Tumor/liver: 8.30
  Tumor/lung: 19.01
  Tumor/muscle: 19.97
  Tumor/spleen: 10.00
  Tumor/stomach: 34.54
In vivo; heart (including contents)
  tissue uptake at 2 min: 3.35 ± 0.35 %ID/g
  tissue uptake at 5 min: 2.95 ± 0.63 %ID/g
  tissue uptake at 8 min: 2.59 ± 0.67 %ID/g
  tissue uptake at 11 min: 2.18 ± 0.51 %ID/g
  tissue uptake at 14 min: 1.86 ± 0.41 %ID/g
  tissue uptake at 17 min: 1.65 ± 0.38 %ID/g
  tissue uptake at 20 min: 1.51 ± 0.36 %ID/g
  tissue uptake at 23 min: 1.41 ± 0.31 %ID/g
  tissue uptake at 26 min: 1.28 ± 0.3 %ID/g
  tissue uptake at 29 min: 1.18 ± 0.24 %ID/g
  tissue uptake at 0.5 h: 1.21 ± 0.3 %ID/g
  tissue uptake at 1 h: 0.65 ± 0.25 %ID/g
  tissue uptake at 2 h: 0.15 ± 0.06 %ID/g
  tissue uptake at 4 h: 0.06 ± 0.02 %ID/g
In vivo; kidney
  tissue uptake at 2 min: 15 ± 0.64 %ID/g
  tissue uptake at 5 min: 14.6 ± 2.02 %ID/g
  tissue uptake at 8 min: 14.9 ± 2.94 %ID/g
  tissue uptake at 11 min: 15.2 ± 2.41 %ID/g
  tissue uptake at 14 min: 15.1 ± 2.42 %ID/g
  tissue uptake at 17 min: 14.4 ± 2.34 %ID/g
  tissue uptake at 20 min: 14.4 ± 2.61 %ID/g
  tissue uptake at 23 min: 13.9 ± 2.02 %ID/g
  tissue uptake at 26 min: 12.5 ± 1.35 %ID/g
  tissue uptake at 29 min: 11.5 ± 0.94 %ID/g
  tissue uptake at 0.5 h: 11.6 ± 1.26 %ID/g
  tissue uptake at 1 h: 9.68 ± 0.18 %ID/g
  tissue uptake at 2 h: 8.82 ± 0.68 %ID/g
  tissue uptake at 4 h: 8.03 ± 0.35 %ID/g
In vivo; liver
  tissue uptake at 2 min: 2.62 ± 0.25 %ID/g
  tissue uptake at 5 min: 2.22 ± 0.41 %ID/g
  tissue uptake at 8 min: 1.94 ± 0.35 %ID/g
  tissue uptake at 11 min: 1.6 ± 0.23 %ID/g
  tissue uptake at 14 min: 1.44 ± 0.23 %ID/g
  tissue uptake at 17 min: 1.23 ± 0.15 %ID/g
  tissue uptake at 20 min: 1.14 ± 0.14 %ID/g
  tissue uptake at 23 min: 1.07 ± 0.14 %ID/g
  tissue uptake at 26 min: 0.97 ± 0.16 %ID/g
  tissue uptake at 29 min: 0.91 ± 0.1 %ID/g
  tissue uptake at 0.5 h: 0.92 ± 0.07 %ID/g
  tissue uptake at 1 h: 0.59 ± 0.21 %ID/g
  tissue uptake at 2 h: 0.22 ± 0.04 %ID/g
  tissue uptake at 4 h: 0.13 ± 0.05 %ID/g
In vivo; muscle
  tissue uptake at 2 min: 1.06 ± 0.1 %ID/g
  tissue uptake at 5 min: 1.02 ± 0.18 %ID/g
  tissue uptake at 8 min: 0.97 ± 0.16 %ID/g
  tissue uptake at 11 min: 0.91 ± 0.19 %ID/g
  tissue uptake at 14 min: 0.82 ± 0.12 %ID/g
  tissue uptake at 17 min: 0.74 ± 0.13 %ID/g
  tissue uptake at 20 min: 0.69 ± 0.11 %ID/g
  tissue uptake at 23 min: 0.66 ± 0.14 %ID/g
  tissue uptake at 26 min: 0.67 ± 0.16 %ID/g
  tissue uptake at 29 min: 0.56 ± 0.11 %ID/g
  tissue uptake at 0.5 h: 0.55 ± 0.15 %ID/g
  tissue uptake at 1 h: 0.26 ± 0.05 %ID/g

Source: patent publication US20240366811A1, “RA[…] P[…] USES THEREOF” (TIANJIN CONJUSTAR BIOLOGICS CO., LTD., priority 2023, published 2024)
